Columns and labels:
[1] = molecular target: Y1I peptide-DR1 complex (human)
[2] = molecular target: 0410 Y1A peptide-DR1 complex (human)
[3] = molecular target: OPT1 Y1A peptide-DR1 complex (human)
[4] = molecular target: L4R peptide-DR1 complex (human)
[5] = molecular target: L4G peptide-DR1 complex (human)
[6] = molecular target: L4G′ peptide-DR1 complex (human)
[7] = molecular target: I9E peptide-DR1 complex (human); assay: fluorescence polarisation; real-time fluorescence anisotropy of Alexa Fluor 488-peptide leaving DR1 (50 nM complex) with titrated HLA-DM (up to 90 μM) and 20 μM unlabeled competitor peptide; 250 mM citrate, 150 mM NaCl, pH 5.0, 37 °C; kobs fitted to a Michaelis-Menten model, Km taken as Kd of DM for the pMHCII (OPT1-DR1: initial velocities, Lineweaver-Burk)
[8] = molecular target: A6G peptide-DR1 complex (human)
[9] = molecular target: A6E peptide-DR1 complex (human)

“soluble recombinant HLA-DM (DMA*0101/DMB*0101) (complex)” showed a kcat, fold change against the homologous complex with Tyr at P1 [1] of 18 fold, a kcat, fold change against the 0410 complex [2] of 8 fold and a kcat, fold change against OPT1-DR1 [3] greater than 2600 fold. For the same substance, the kcat, fold change against OPT1-DR1 [4] was greater than 1300 fold, the kcat, fold change against OPT1-DR1 [5] was greater than 120 fold and the kcat, fold change against the I9E complex [6] was 510 fold. The fold decrease in Km against the homologous complex with Ile at P9 [7] was 9 fold, the kcat, fold change against OPT1-DR1 [8] was 2 fold and the kcat, fold change against OPT1-DR1 (A6E) [9] was greater than 200 fold. The kcat, fold change against the A6G complex (G6E) [9] was greater than 100 fold.
